The source of these data is paper PMC4552939, “Structural Analysis of the Regulatory Domain of ExsA, a Key Transcriptional Regulator of the Type Three Secretion System in Pseudomonas aeruginosa” (PLoS ONE, 2015).

The target of data set [1] is ExsA-L117R (Pseudomonas aeruginosa) (UniProt P26993).
Data set [2] deals with the molecule itself. As to the kind of experiment: crystal structure; hanging-drop vapor diffusion at 25°C; 1.6M MgSO4, 0.1M MES pH 6.5, 0.1M EGTA; dimers A/A' and B/B'' made by crystallographic two-fold axes.

In turn, “ExsA-L117R (from UniProt P26993 1-278) (natural protein)” displayed an activation of transcription in vitro at 16, 32 and 64 nM protein, against wild-type ExsA in data set [1] of 10 fold.

B1: ExsA amino-terminal domain (ExsA-NTD), amino acids 2-178 (domain or fragment)
chain: QGAKSLGRKQITSCHWNIPTFEYRVNKEEGVYVLLEGELTVQDIDSTFCLAPGELLFVRRGSYVVSTKGKDSRILWIPLSAQFLQGFVQRFGALLSEVERCDEPVPGIIAFAATPLLAGCVKGLKELLVHEHPPMLACLKIEELLMLFAFSPQGPLLMSVLRQLSNRHVERLQLFME
notes: thermolysin product, amino acids 2-178 by LC-MS; A selenomethionine-substituted sample was also made (E. coli BL21(DE3), minimal medium), crystallised under identical conditions and used for phasing; Residues 2-10 and 166-178 (chain A) and 2-9 and 167-178 (chain B) gave no density; also called regulatory domain of ExsA; ExsA N-terminal domain protein; source: E. coli BL21(DE3) CodonPlus RIL, …
Regarding B1, the binding result in data set [2] is recorded as “binds”.
